Values joined by “and” are separate entries in the source; they are usually repeats but may differ in a detail not shown here. Equal entries are not always repeated. Where two headings read alike, the source gives them in different places.
Legend:
[1] = test system: PD1 on CD3 lymphocytes; experiment: PD1 surface expression on CD3 lymphocytes by flow cytometry in KPC tumor mice (Example 12); format: in vivo; details: wildtype mice, KPC-PDAC (50 000 cells i.p.), 21 days; rec. ASM for 2 days with 4 i.p. injections/day; individual mice
Experimental: FIG. 12 is a graph showing the PDI expression on lymphocytes of tumor mice upon treatment with recombinant acid sphingomyelinase or solvent.
The PD1 expression on lymphocytes with/without treatment with recombinant acid sphingomyelinase was determined. The surface expression of PD1 on CD3 lymphocytes was determined by flow cytometry upon staining with FITC-anti-PD1 and APC-anti-CD3 antibodies, expressed as mean fluorescence in a.u. of PD1 in the CD3-positive cell population. Mice were i.p. injected with 50 000 KPC tumor cells, left for 21 days untreated or treated with recombinant acid sphingomyelinase for 2 days with 4 i.p. injections/day.

[2] = cited from earlier work
[3] = test system: KPC cells; experiment: Tumor growth in wt mice after peritoneal injection of KPC cells, gemcitabine plus recombinant ASM (Example 10, FIG. 11); format: in vivo; details: 0.75 mg/kg i.v. twice daily, 2 treatment cycles of 4 days each, in combination with gemcitabine; KPC tumor-injected wt mice
Experimental: FIG. 11 is a graph showing the results of wt mice that were treated with gemcitabine alone, gemcitabine plus recombinant ASM, or vehicle control after peritoneal injection of KPC cells. Recombinant ASM was administered twice daily at 0.75 mg/kg i.v. for two treatment cycles of 4 days each.
Since PDAC growth in ASM-tr mice. we determined the therapeutic potential of exogenous administration of recombinant ASM. We administered 0.75 mg/kg recombinant ASM i.v. twice daily to tumor-injected mice for 2 treatment cycles of 4 days each in combination with the standard treatment, i.e. gemcitabine. […] However, because the half-life of recombinant ASM is only 2 h, these studies must be repeated with continuous infusion of ASM.
Wt mice were treated with gemcitabine alone (“Group 1”), gemcitabine plus recombinant ASM (“Group 2”) or vehicle control after peritoneal injection of KPC cells (“Group 3”). Recombinant ASM was administered twice daily 0.75 mg/kg i.v. for two treatment cycles of 4 days each.

[4] = in humans; cited from earlier work
[5] = test system: KPC tumor cells; experiment: Survival after i.p. injection of KPC tumor cells (Example 11); format: in vivo, mice; details: 50 000 KPC tumor cells i.p., rec. ASM i.p. twice daily for 2 weeks, starting 2 days after tumor injection; for Survival of individual subjects: anti-PD1 every 2nd day i.p. 250 μg/25 g where combined
Experimental: Group 1: 50 000 KPC tumor cells were i.p. injected and tumor development was determined. For this group, the subjects survived, respectively, for 27, 28, 28, 29, 30, and 31 days.
Group 2: Survival time was collected for subjects upon application of recombinant acid sphingomyelinase (i.p., twice daily, for 2 weeks, starting 2 days after tumor injection). For this group, the subjects survived, respectively, for 48, 55, 57, 60, 62, 65 and 70 days. The acid sphingomyelinase was injected for a longer time and i.p. in these experiments than in FIG. 11.
Group 3: Survival time was collected for subjects upon application of recombinant acid sphingomyelinase (i.p., twice daily, for 2 weeks, starting 2 days after tumor injection)+application of anti-PD1 antibodies (every 2nd day i.p., 250 μg/25 g). For this group, the subjects survived, respectively, for 75, 80, 85, 87, 90, 93 and 96 days. The half-life time of acid sphingomyelinase is rather short in mice (2 hrs, but much longer in humans with 2 weeks). Thus, the i.p. injection are not very sufficient and must be replaced by continuous infusion, which may allow complete elimination of the tumors.

B1: recombinant ASM: recombinant acid sphingomyelinase (EC 3.1.4.12, SMPD1), a lysosomal hydrolase glycoprotein degrading sphingomyelin to phosphorylcholine and ceramide (protein, UniProt P17405 47-631, looked up)
Sphingomyelin …: LALSDSRVLWAPAEAHPLSPQGHPARLHRIVPRLRDVFGWGNLTCPICKGLFTAINLGLKKEPNVARVGSVAIKLCNLLKIAPPAVCQSIVHLFEDDMVEVWRRSVLSPSEACGLLLGSTCGHWDIFSSWNISLPTVPKPPPKPPSPPAPGAPVSRILFLTDLHWDHDYLEGTDPDCADPLCCRRGSGLPPASRPGAGYWGEYSKCDLPLRTLESLLSGLGPAGPFDMVYWTGDIPAHDVWHQTRQDQLRALTTVTALVRKFLGPVPVYPAVGNHESTPVNSFPPPFIEGNHSSRWLYEAMAKAWEPWLPAEALRTLRIGGFYALSPYPGLRLISLNMNFCSRENFWLLINSTDPAGQLQWLVGELQAAEDRGDKVHIIGHIPPGHCLKSWSWNYYRIVARYENTLAAQFFGHTHVDEFEVFYDEETLSRPLAVAFLAPSATTYIGLNPGYRVYQIDGNYSGSSHVVLDHETYILNLTQANIPGAIPHWQLLYRARETYGLPNTLPTAWHNLVYRMRGDMQLFQTFWFLYHKGHPPSEPCGTPCRLATLCAQLSARADSPALCRHLMPDGSLPEAQSLWPRPLFC
[1]
  Surface expression of PD1 on CD3 lymphocytes, mean fluorescence of PD1 in the CD3-positive cell population: 138 a.u. and 129 a.u. and 125 a.u. and 118 a.u. and 131 a.u. and 115 a.u. and 141 a.u.
[2]; in mice
  half-life time of acid sphingomyelinase: 2 h
[2]; stated in mouse study of Example 10
  half-life of recombinant ASM: 2 h
[3]
  tumor growth: delayed tumor growth
[4]
  half-life time of acid sphingomyelinase: 2 weeks
[5]
  Survival of individual subjects: 48 days and 55 days and 57 days and 60 days and 62 days and 65 days and 70 days
[5]; listed as Rec. ASM alone
  Survival of individual subjects: 48 days and 55 days and 57 days and 60 days and 62 days and 65 days and 70 days
[5]; anti-PD1 every 2nd day i.p. where combined
  Avg. Survival: 59.6 days
